Data on 7 molecules can be found in patent US20150017154A1 (NEXVET AUSTRALIA, published 2015).

Where a chain is given by its changes, count along the chain named.

The target of test [1] is T1, complement C1q (from human serum) (human, UniProt P02745 23-245; P02746 28-253; P02747 29-245).
T1 construct: Native C1q in human serum diluted 1/100
The test can be described thus: C1q ELISA: antibody captured on mouse NGF-coated plate, human serum, anti-C1q-HRP. How it is done:
CHO cell transfectant supernatants from Example 2 were incubated with plates coated with […] NGF to capture the antibodies. The plates were washed and then incubated with human serum and bound complement C1q was measured by binding of anti-human C1q polyclonal antibody HRP and developed as above.
Plates were coated with 100 μl/well of 5 μg/ml mouse NGF and blocked with 5% BSA/PBS. Coated wells were incubated for 1 hour at room temperature with cell culture supernatants, containing recombinant caninised anti-NGF IgG, diluted in PBS/1% BSA (100 μl/well). The plates were washed and incubated for 1 hour at room temperature with 100 μl/well of human serum diluted 1/100 in veronal buffered saline containing 0.5 mM MgCl₂, 2 mM CaCl₂, 0.05% Tween-20, 0.1% gelatin and 0.5% BSA. After washing, plates were incubated with 100 μl of a 1/800 dilution of sheep anti-C1q-HRP (Serotec) in PBS/1% BSA. After washing, plates were developed by the addition of 100 μl TMB substrate (Thermo Scientific). Development was stopped by the addition of 100 μl of 2N H₂SO₄ and absorbance read at 450 nm.
A general note: In an ELISA, binding on a coated surface is turned into a signal by an enzyme label.

Test [2] concerns the target T2, mouse NGF (mouse, UniProt P01139 122-241, limits assumed).
T2 construct: Coated on ELISA plates; also called murine NGF
The test can be described thus: ELISA, CHO supernatant on coated NGF, anti-canine IgG-HRP. The method, then:
Combinations of caninised heavy and light chain cDNAs were transfected into CHO cells, the supernatants harvested and reacted in ELISA format with either canine or murine NGF. Following incubation and wash steps, the bound canine antibody was detected by reactivity with a goat-anti canine IgG specific polyclonal antibody linked to horseradish peroxidase (HRP) and developed using TMB. The optical density of the resulting product was measured at 450 nm and compared with that from mock empty vector transfected supernatant (denoted as “Mock” in FIG. 1).

In test [3] the target is T1, complement C1q (from human serum). The test can be described thus: C1q ELISA: antibody captured on NGF-coated plate, human serum, anti-C1q-HRP.
Test [4] has as its target T2, mouse NGF. Put plainly: binding ELISA to mouse NGF, CHO supernatants undiluted and 1/100. The method, then:
A comparison of the binding of N-glycosylated and aglycosylated variants of anti-canine-NGF monoclonal antibodies to NGF with HCB and HCC heavy chain isotypes was carried out. Expression vectors encoding the light and heavy chain pairs described by SEQ ID NO:5 and SEQ ID NO:7 (HCB), SEQ ID NO:5 and SEQ ID NO:16 (HCB*), SEQ ID NO:5 and SEQ ID NO:8 (HCC), or SEQ ID NO:5 and SEQ ID NO:17 (HCC*) were co-transfected into CHO cells and the supernatants compared by binding ELISA to mouse NGF.

Test [5] addresses T2, mouse NGF. Put plainly: binding ELISA to mouse NGF, CHO supernatant dilutions.
The target in test [6] is NGF (species not stated, TF-1 cell proliferation assay). The test can be described thus: cell-based or functional assay.

T1 sequence (P02745 23-245 limits assumed, chain 1 of 3): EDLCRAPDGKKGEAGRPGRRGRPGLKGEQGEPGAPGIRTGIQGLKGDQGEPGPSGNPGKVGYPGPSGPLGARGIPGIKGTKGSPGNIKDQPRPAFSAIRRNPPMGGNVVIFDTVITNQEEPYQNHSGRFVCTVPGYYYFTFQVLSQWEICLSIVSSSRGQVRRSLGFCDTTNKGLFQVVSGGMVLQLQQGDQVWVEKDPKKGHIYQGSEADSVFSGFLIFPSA
T1 sequence (P02746 28-253 limits assumed, chain 2 of 3): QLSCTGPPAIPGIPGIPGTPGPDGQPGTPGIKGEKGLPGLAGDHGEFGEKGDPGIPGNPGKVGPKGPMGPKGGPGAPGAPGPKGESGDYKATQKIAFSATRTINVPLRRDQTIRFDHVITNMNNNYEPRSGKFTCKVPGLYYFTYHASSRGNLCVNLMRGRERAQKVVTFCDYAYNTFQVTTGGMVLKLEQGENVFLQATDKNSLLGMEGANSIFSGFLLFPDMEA
T1 sequence (P02747 29-245 limits assumed, chain 3 of 3): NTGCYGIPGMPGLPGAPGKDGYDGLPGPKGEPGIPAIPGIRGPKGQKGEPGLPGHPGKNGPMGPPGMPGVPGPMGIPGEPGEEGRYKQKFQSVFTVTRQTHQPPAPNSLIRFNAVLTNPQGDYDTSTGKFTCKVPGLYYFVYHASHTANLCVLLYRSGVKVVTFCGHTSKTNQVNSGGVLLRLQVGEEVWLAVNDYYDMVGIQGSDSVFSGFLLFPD
T2 sequence (P01139 122-241 limits assumed): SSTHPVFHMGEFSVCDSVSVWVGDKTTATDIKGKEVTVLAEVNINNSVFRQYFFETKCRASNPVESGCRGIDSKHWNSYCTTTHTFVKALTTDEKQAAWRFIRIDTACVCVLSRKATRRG

B1: caninised anti-NGF antibody comprising the caN-HCA heavy chain and caN-kLC light chain (antibody)
heavy: EVQLVESGGDLVNPGGTLTLSCVVSGFSLTNNNVNWVRQALGRGLEWVGGVWAGGATDYNSALKSRLTITRDTSKSTVFLKMHSLQSEDTATYYCARDGGYSSSTLYAMDAWGQGTLVTVSSASTTAPSVFPLAPSCGSTSGSTVALACLVSGYFPEPVTVSWNSGSLTSGVHTFPSVLQSSGLHSLSSMVTVPSSRWPSETFTCNVVHPASNTKVDKPVFNECRCTDTPPCPVPEPLGGPSVLIFPPKPKDILRITRTPEVTCVVLDLGREDPEVQISWFVDGKEVHTAKTQSREQQFNGTYRVVSVLPIEHQDWLTGKEFKCRVNHIDLPSPIERTISKARGRAHKPSVYVLPPSPKELSSSDTVSITCLIKDFYPPDIDVEWQSNGQQEPERKHRMTPPQLDEDGSYFLYSKLSVDKSRWQQGDPFTCAVMHETLQNHYTDLSLSHSPGK
light: DIQMTQSPASLSLSQEEKVTITCRASEDIYNALAWYQQKPGQAPKLLIYNTDTLHTGVPSRFSGSGSGTEYSLTINSLESEDVAVYFCQHYFHYPRTFGAGTKVELKRNDAQPAVYLFQPSPDQLHTGSASVVCLLNSFYPKDINVKWKVDGVIQDTGIQESVTEQDKDSTYSLSSTLTMSSTEYLSHELYSCEITHKSLPSTLIKSFQRSECQRVD
notes: Tested as CHO cell transfectant supernatant; also called A-HCA; caN-HCA+caN-kLC1
Turning to B1, the figures for the binding result (in test [1]; with mouse NGF [2]) were “no binding” and “binds”, respectively.

B2: aglycosylated variant anti-canine-NGF monoclonal antibody HCB* (SEQ ID NO:5 and SEQ ID NO:16) (antibody)
heavy: EVQLVESGGDLVNPGGTLTLSCVVSGFSLTNNNVNWVRQALGRGLEWVGGVWAGGATDYNSALKSRLTITRDTSKSTVFLKMHSLQSEDTATYYCARDGGYSSSTLYAMDAWGQGTLVTVSSASTTAPSVFPLAPSCGSTSGSTVALACLVSGYFPEPVTVSWNSGSLTSGVHTFPSVLQSSGLYSLSSMVTVPSSRWPSETFTCNVAHPASKTKVDKPVPKRENGRVPRPPDCPKCPAPEMLGGPSVFIFPPKPKDTLLIARTPEVTCVVVDLDPEDPEVQISWFVDGKQMQTAKTQPREEQFAGTYRVVSVLPIGHQDWLKGKQFTCKVNNKALPSPIERTISKARGQAHQPSVYVLPPSREELSKNTVSLTCLIKDFYPPDIDVEWQSNGQQEPESKYRTTPPQLDEDGSYFLYSKLSVDKSRWQRGDTFICAVMHEALHNHYTQESLSHSPGK
light: B1 light
notes: Tested as CHO cell transfectant supernatant
As for B2, the values for the binding result (in test [3]; in the test with mouse NGF [4]) were “no binding” and “binds”, respectively.

B3: caninised anti-NGF antibody comprising the caN-HCB heavy chain and the caN-kLC light chain (antibody)
heavy: B2 heavy with A305N
light: B1 light
notes: Tested as CHO cell transfectant supernatant; also called caN-HCB+caN-kLC1
B3: the binding result (in test [1]; with mouse NGF [5]) was “binds” each time.

B4: aglycosylated variant anti-canine-NGF monoclonal antibody HCC* (SEQ ID NO:5 and SEQ ID NO:17) (antibody)
heavy: EVQLVESGGDLVNPGGTLTLSCVVSGFSLTNNNVNWVRQALGRGLEWVGGVWAGGATDYNSALKSRLTITRDTSKSTVFLKMHSLQSEDTATYYCARDGGYSSSTLYAMDAWGQGTLVTVSSASTTAPSVFPLAPSCGSQSGSTVALACLVSGYIPEPVTVSWNSVSLTSGVHTFPSVLQSSGLYSLSSMVTVPSSRWPSETFTCNVAHPATNTKVDKPVAKECECKCNCNNCPCPGCGLLGGPSVFIFPPKPKDILVTARTPTVTCVVVDLDPENPEVQISWFVDSKQVQTANTQPREEQSAGTYRVVSVLPIGHQDWLSGKQFKCKVNNKALPSPIEEIISKTPGQAHQPNVYVLPPSRDEMSKNTVTLTCLVKDFFPPEIDVEWQSNGQQEPESKYRMTPPQLDEDGSYFLYSKLSVDKSRWQRGDTFICAVMHEALHNHYTQISLSHSPGK
light: B1 light
notes: as for B2
Consider B4, for which the binding result (in test [3]; with mouse NGF [4]) was “binds” throughout.

B5: caninised anti-NGF antibody comprising the caN-HCD heavy chain and caN-kLC light chain (antibody)
heavy: EVQLVESGGDLVNPGGTLTLSCVVSGFSLTNNNVNWVRQALGRGLEWVGGVWAGGATDYNSALKSRLTITRDTSKSTVFLKMHSLQSEDTATYYCARDGGYSSSTLYAMDAWGQGTLVTVSSASTTAPSVFPLAPSCGSTSGSTVALACLVSGYFPEPVTVSWNSGSLTSGVHTFPSVLQSSGLYSLSSTVTVPSSRWPSETFTCNVVHPASNTKVDKPVPKESTCKCISPCPVPESLGGPSVFIFPPKPKDILRITRTPEITCVVLDLGREDPEVQISWFVDGKEVHTAKTQPREQQFNSTYRVVSVLPIEHQDWLTGKEFKCRVNHIGLPSPIERTISKARGQAHQPSVYVLPPSPKELSSSDTVTLTCLIKDFYPPEIDVEWQSNGQPEPESKYHTTAPQLDEDGSYFLYSKLSVDKSRWQQGDTFTCAVMHEALQNHYTDLSLSHSPGK
light: B1 light
notes: also called D-HCD; caninised HCD type antibody
In the case of B5, the binding result in test [1] was “no binding”.

B6: caninised anti-NGF antibody comprising the caN-HCC heavy chain and a caN-kLC light chain (antibody)
heavy: B4 heavy with A303N
light: B1 light
notes: Tested as CHO cell transfectant supernatant; also called C-HCC; caN-HCC+caN-kLC1
In the case of B6, the binding result (in test [1]; in the test with mouse NGF [4]) was “binds” each time.

B7: variant caninised anti-NGF antibody (caN2) with light chain SEQ ID NO:10 (VL2 and canine kappa constant domain) and heavy chain SEQ ID NO:11 (HCA variant-VH2 … (antibody)
heavy: B1 heavy with K81Q, Q86R
light: B1 light with Q3V, Y71F, N76S, S80P, F87Y
notes: also called anti-canine NGF monoclonal antibody (canine HCA type heavy chain)
On to B7, for which the binding result was “binds” with mouse NGF [5]; “no binding (tested: 4, 2 and 1 ug/ml)” in test [3]. Also, in test [6], the “IC50 in the TF-1 NGF neutralisation assay” value turned out to be 13 pM.
